Assay results: patent US20200055913A1 (University of California, published 2020)

Assays:
[1] = target: T1, human TLR4 on human PBMC (CD14+CD11b+ monocytes) (human, UniProt O00206 24-839); assay: competitive hRetn/LPS binding assay on human PBMC, flow cytometry
T1 construct: whole, on cells
Procedure: With reference to FIG. 5J, the functional ability of the hRetn N-peptide to block LPS binding and function was tested. The binding experiments were performed on ice to rule out effects of LPS-induced TLR4 endocytosis, which would have added complexity for interpretation of the data. Pre-incubation of human PBMC with the hRetn N-peptide or full-length hRetn inhibited LPS binding to CD14+CD11 b+ monocytes. […] An additional formulation of human resistin fused to the humanFc Ig fragment was also effective at inhibiting proinflammatory cytokines and promoting IL-10 expression in primary macrophage cultures (FIG. 7C).
Human PBMCs. Human buffy coat was purchased from Zen-bio. Buffy coat was overlaid on top of Histopaque-1077 and spun at 700g at 25° C. with no brake and PBMCs were recovered from the interphase. PBMCs were plated in 96-well plates and stimulated with mammalian-derived human resistin (1 μg/mL, LifeSpan Biosciences) or hRetn N-peptide (1 μg/mL). After 24 hours, ultrapure LPS (100 ng/mL, Invivogen) was added and supernatants recovered for ELISA at 24 hours. Where indicated, cells were incubated for 4 hours with STAT3 (5, 15-DPP, 50 μM) or TBK1 (BX-795, 1 μM) inhibitors prior to hRetn treatment. For the hRetn competitive binding assay, 1×10^6 cells were incubated with recombinant hRetn (0.5 μg), washed in PBS then incubated with 0.5 μg LPS-biotin (incubations were 30 minutes on ice). […]

[2] = target: T2, his-human CAP1 (cyclic adenylate associated protein 1) (human, UniProt Q01518 1-475, limits assumed); assay: pull-down on nickel-NTA agarose beads, anti-hRetn Western blot
T2 construct: Proposed receptor of hRetn, tested in the pull-down; also called his-CAP1; His-CAP1; not shown: His tag
T2 sequence (Q01518 whole entry): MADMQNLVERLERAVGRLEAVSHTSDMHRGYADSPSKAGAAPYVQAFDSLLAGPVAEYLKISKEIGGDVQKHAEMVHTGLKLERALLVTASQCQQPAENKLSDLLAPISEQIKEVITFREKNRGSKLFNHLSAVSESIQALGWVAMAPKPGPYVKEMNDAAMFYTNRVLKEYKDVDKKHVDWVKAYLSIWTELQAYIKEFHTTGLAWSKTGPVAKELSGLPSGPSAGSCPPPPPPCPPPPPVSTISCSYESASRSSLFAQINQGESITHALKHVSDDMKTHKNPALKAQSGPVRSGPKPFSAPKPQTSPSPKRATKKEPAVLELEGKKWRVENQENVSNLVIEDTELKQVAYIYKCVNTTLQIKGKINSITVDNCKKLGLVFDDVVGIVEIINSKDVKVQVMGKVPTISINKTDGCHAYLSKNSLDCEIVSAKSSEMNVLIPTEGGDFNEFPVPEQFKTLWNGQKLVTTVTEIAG
Procedure: (§1) Given that there are no publicly available CAP1 deficient mice, a direct protein-protein interaction of hRetn to TLR4 or CAP1 was investigated as an alternative to cell binding assays. A pull-down assay was performed utilizing recombinant hRetn with histidine (his)-tagged human TLR4, his-human CAP1 or his-maltose binding protein (MBP) as a negative control (FIG. 4G). In the pull-down elution, Western blot using anti-his antibody confirmed that his-MBP, his-TLR4 and his-CAP1 are all pulled down by the nickel-NTA agarose beads. In addition, when blotting the elution fraction with anti-hRetn antibody, hRetn was only present in the elution with his-TLR4, not his-CAP1 or his-MBP. To ensure that this interaction was not due to low-level LPS contamination, this pull-down assay was also performed with mammalian cell-derived hRetn. Similar to E. coli-derived hRetn, mammalian-derived hRetn is only detected when pulled down with his-TLR4, not his-CAP1 or his-MBP.
(§2) Pull-down Assay. […] His-MBP, His-TLR4 and His-CAP1 were detected by anti-His antibody (Abcam), and hRetn was detected by anti-hRetn antibody (donated by Mitchell Lazar) by Western Blot. […]

[3] = target: his-maltose binding protein (MBP) (UniProt P0AEX9 27-396 = MBP); assay: as above
Procedure: as §1, §2

T1 sequence (O00206 24-839): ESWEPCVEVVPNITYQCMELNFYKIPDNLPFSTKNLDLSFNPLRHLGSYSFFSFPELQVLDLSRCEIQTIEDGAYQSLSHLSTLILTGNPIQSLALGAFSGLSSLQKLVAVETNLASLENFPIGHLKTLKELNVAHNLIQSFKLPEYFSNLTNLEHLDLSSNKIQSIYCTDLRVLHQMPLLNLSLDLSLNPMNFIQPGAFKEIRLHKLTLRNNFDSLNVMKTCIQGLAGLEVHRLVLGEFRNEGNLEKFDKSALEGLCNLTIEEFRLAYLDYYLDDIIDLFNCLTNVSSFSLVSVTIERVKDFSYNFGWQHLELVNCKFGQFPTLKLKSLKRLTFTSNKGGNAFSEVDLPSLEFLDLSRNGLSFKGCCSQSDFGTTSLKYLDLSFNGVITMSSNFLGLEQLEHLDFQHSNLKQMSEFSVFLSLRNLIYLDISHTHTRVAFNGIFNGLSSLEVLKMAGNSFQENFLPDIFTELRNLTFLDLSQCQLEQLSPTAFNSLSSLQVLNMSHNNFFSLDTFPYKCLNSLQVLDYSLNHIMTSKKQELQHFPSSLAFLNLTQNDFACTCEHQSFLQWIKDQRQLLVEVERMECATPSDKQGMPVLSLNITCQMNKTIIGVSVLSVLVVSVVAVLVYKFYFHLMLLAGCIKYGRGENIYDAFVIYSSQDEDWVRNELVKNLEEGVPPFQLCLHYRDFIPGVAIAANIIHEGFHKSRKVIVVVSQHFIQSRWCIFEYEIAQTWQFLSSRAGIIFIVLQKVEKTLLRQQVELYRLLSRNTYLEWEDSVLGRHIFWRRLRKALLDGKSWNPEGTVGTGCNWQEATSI

B1: mammalian cell-derived human resistin (hRetn), 293T cell-derived (LifeSpan Biosciences) (ligand)
chain: KTLCSMEEAINERIQEVAGSLIFRAISSIGLECQSVTSRGDLATCPRGFAVTGCTCGSACGSWDVRAETTCHCQCAGMDWTGARCCRVQP
notes: Bought protein (LifeSpan Biosciences); also called mammalian-derived hRetn; 293T derived hRetn
binding result [1]: binds

B2: recombinant human resistin (hRetn), E. coli-derived (Peprotech) (ligand)
chain: SSKTLCSMEEAINERIQEVAGSLIFRAISSIGLECQSVTSRGDLATCPRGFAVTGCTCGSACGSWDVRAETTCHCQCAGMDWTGARCCRVQP
notes: Bought protein (Peprotech), made in bacteria; also called recombinant hResistin; E. coli-derived hRetn
binding result [2]: no binding | binding result [3]: no binding
